Results as given in article doi:10.1101/2025.08.13.670108v1.

How the values were obtained:
O=C(O)/C=C/c1c[nH]cn1 = test: purified protein; settings: pH 8.0; 25.0 °C
[1] = system: C[N+](C)(C)[C@@H](Cc1cnc[nH]1)C(=O)[O-]; test: purified protein; type: biochemical, Shewanella woodyi; settings: pH 8.5

| Substance | Km (O=C(O)/C=C/c1c[nH]cn1) [µM] | Km [1] [µM] |
| --- | --- | --- |
| Swoo_3912 (Shewanella woodyi ATCC 51908) | 0.7 ± 0.1 |  |
| Swoo_3913 (Shewanella woodyi ATCC 51908) |  | 103 ± 8 |
